This assay concerns the target LTβR (whole, in cells) (human) (UniProt P36941). As to the kind of experiment: cell-based or functional assay.

Substance “recombinant soluble LTα1β2 (from UniProt P01374 35-205; Q06643 49-244) (ligand)” had an IC50 for inhibition of HCMV pp28 expression (western blot) of 1 nM; an inhibition of the cytopathic effect of HCMV, against LTα and LIGHT of 10 fold.

The values above are taken from patent US20110171242A1.
